This note sets out measurements from US7235648B1, “Yeast cells engineered to produce pheromone system protein surrogates, and uses therefor” (Cadus Technologies, Inc., priority 1993, dated 2007).

Ends that are not written are not given here.

What all share (type): cell-based
The subject of one series is WKK6 cells. The series is described as follows: Valinomycin filter disk assay on lawns of ste6 yeast (WKK6) expressing human Mdr1 constructs. The note with it: 5 mM valinomycin in DMSO on filter disk. As to the method:
CADUS plasmids 1065, 1079 and 1097 as well as a URA3 control plasmid (pRS426=1019) were transformed into a ura3^−, ste6^− strain of yeast (WKK6=CY20=MATa ura3-1 leu2-3.112 his3-11.15 trp1-1 ade2-1 can1-100 ste6::HIS3, obtained from Karl Kuchler). Individual transformants were grown overnight in SD-URA media and lawns containing approximately 5×10^6 cells were poured onto YPD plates in 3 ml of YPD top agar. Sterile filter disks were placed on the plates after the top agar had solidified, and […] of DMSO or 5 mM valinomycin in DMSO were spotted onto the filter disks.

Another series addresses T1, STE3 (Saccharomyces cerevisiae, UniProt P06783).
T1 construct: fragment containing the entire coding region of STE3 flanked by the two newly introduced Spe I sites; expressed in transfected cells; host or cells: S. cerevisiae CY599 / CY2012 (ste2-STE3, chromosomal replacement with Cadus 1147)
T1 sequence (P06783 1-470): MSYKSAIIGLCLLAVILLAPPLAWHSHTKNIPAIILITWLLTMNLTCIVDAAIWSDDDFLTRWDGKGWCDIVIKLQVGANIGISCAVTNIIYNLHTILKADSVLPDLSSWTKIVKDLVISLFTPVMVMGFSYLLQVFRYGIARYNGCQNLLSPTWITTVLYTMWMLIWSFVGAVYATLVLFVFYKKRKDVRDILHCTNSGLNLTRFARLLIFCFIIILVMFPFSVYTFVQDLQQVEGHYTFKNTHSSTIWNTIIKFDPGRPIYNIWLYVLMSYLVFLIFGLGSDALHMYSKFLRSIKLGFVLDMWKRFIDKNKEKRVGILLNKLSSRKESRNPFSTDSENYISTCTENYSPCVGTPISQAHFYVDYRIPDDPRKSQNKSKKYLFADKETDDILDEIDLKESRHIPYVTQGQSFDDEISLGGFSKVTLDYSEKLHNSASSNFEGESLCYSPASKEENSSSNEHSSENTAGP
The series is described as follows: Autocrine yeast (CY599/CY2012, ste2-STE3) growth on histidine-deficient medium plus aminotriazole, fus1-HIS3 readout. The note with it: for ability of the peptide-encoding plasmid to confer the His phenotype on CY2012 (a-factor analogues): -His medium with 0.2 mM 3-aminotriazole, random a-factor library. The text has this:
A MATa strain designed for the expression of peptides in the context of MFA1 (i.e., using the MFA1 expression vector, Cadus 1239) has been constructed. The genotype of this strain, designated CY599, is […] mfa1 mfa2 far1-1 his3::fus1-HIS3 ste2-STE3 ura3 met1 ade1 leu2. In this strain, Cadus 1147 (see above) was used to replace STE2 with a hybrid gene in which the STE3 coding region is under the control of expression elements which normally drive the expression of STE2. As a result, the a-factor receptor replaces the α-factor receptor. The genes which encode a-factor are deleted from this strain: the far1 mutation abrogates the arrest of growth which normally follows stimulation of the pheromone response pathway; and the FUS1-HIS3 hybrid gene (integrated at the HIS3 locus) provides a selectable signal of activation of the pheromone response pathway. CY599 cells were expected to be capable of the transport of a-factor or a-factor-like peptides encoded by oligonucleotides expressed from Cadus 1239 by virtue of expression of the endogenous yeast transporter, Ste6.
Experiments were performed to test: 1. the ability of Cadus 1239 to function as a vector for the expression of peptides encoded by synthetic oligonucleotides; 2. the suitability of the oligonucleotides, as designed, to direct the export of farnesylated, carboxymethylated peptides through the pathway normally used by a-factor; 3. the capacity of CY599 to export these peptides; and 4. the ability of CY599 to respond to those peptides that stimulate the pheromone response pathway by growing on selective media. These tests were performed using an oligonucleotide which encodes the 12 amino acid a-factor; specifically, the degenerate sequence (NNN)n in the oligo-nucleotide cloned into Cadus 1239 (see above) (with n=12) encodes the peptide component of a-factor pheromone. CY599 was transformed with the resulting plasmid (Cadus 1220), and transformants selected on uracil-deficient medium were transferred to histidine-deficient medium supplemented with a range of concentrations of aminotriazole. […] Cadus 1220 and the designed oligonucleotide are competent to direct the expression and export of a farnesylated, carboxy-methylated peptide encoded by the (NNN)n sequence of the synthetic oligonucleotide; and 2. CY599 can, in an autocrine fashion, respond to a farnesylated, carboxy-methylated peptide that stimulates its pheromone response pathway, in this case signaling initiates as a-factor binds to STE3.
An optimized version of strain 6 (Example 2 above) was derived. This yeast strain, CY2012 (MATa ste2-STE3 far1Δ1442 mfa1::LEU2 mfa2-lacZ fus1-HIS3 tht1-1 ura3 leu2 his3 trp1 ste2), was constructed as follows. […]

The next series concerns the target T2, STE2 receptor (Saccharomyces cerevisiae, UniProt D6VTK4).
T2 construct: endogenous in cells; host or cells: S. cerevisiae MATa CY588 / CY1455
T2 sequence (D6VTK4 1-431): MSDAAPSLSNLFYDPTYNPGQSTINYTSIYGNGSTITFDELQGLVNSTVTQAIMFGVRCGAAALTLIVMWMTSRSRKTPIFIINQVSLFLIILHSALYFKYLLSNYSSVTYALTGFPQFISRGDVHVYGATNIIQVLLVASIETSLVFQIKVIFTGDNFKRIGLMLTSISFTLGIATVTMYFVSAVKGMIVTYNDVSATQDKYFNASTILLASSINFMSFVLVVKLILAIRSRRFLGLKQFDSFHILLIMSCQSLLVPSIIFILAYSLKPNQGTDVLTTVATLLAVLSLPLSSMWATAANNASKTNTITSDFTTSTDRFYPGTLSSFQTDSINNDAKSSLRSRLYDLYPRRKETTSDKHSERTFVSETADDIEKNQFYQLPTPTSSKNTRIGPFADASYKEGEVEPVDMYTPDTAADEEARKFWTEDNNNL
The series is described as follows: Autocrine MATa yeast (CY588/CY1455) growth on histidine-deficient medium plus aminotriazole, fus1-HIS3 readout. To be noted: -His medium with 1.0 mM or 2.5 mM aminotriazole.

For series [1], the target named is T3, wild-type human Mdr1 protein (Homo sapiens, UniProt P08183).
T3 construct: expressed in transfected cells; host or cells: S. cerevisiae WKK6 (CY20, ste6::HIS3), plasmid Cadus 1097
T3 sequence (P08183 whole entry): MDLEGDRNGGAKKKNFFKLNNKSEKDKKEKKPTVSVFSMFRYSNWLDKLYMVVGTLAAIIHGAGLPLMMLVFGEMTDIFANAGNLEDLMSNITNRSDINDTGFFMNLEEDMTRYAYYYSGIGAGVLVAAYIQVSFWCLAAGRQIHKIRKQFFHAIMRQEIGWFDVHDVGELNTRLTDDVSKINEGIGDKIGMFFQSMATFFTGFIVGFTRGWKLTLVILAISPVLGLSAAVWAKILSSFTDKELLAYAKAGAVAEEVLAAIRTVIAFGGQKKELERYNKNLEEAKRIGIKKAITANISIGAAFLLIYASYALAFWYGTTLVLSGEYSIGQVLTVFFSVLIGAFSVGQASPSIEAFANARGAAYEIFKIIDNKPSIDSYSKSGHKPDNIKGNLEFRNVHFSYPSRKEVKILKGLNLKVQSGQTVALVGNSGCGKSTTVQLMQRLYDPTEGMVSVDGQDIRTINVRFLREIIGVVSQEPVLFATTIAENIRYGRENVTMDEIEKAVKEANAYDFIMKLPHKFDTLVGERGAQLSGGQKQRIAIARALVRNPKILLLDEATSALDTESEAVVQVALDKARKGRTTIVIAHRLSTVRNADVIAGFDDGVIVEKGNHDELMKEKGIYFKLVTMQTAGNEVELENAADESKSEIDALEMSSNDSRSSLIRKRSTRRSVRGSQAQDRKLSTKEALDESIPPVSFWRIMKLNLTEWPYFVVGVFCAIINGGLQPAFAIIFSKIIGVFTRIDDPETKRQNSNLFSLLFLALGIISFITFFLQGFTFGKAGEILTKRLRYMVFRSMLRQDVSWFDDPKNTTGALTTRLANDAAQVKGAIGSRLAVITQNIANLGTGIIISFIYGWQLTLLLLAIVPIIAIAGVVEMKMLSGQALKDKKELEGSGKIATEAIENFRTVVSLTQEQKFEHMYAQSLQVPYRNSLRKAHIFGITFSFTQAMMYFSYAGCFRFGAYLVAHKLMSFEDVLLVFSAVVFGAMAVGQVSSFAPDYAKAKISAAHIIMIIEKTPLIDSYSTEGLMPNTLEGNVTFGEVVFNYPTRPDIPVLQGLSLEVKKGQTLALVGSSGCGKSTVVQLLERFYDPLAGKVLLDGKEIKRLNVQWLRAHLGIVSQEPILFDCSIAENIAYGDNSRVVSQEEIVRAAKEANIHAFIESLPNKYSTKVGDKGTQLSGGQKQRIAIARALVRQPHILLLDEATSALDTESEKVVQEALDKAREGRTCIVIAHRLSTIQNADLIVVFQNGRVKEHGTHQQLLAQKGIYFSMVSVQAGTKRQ
The series is described as follows: Halo assay of a-factor transport by human Mdr1 in ste6 yeast on supersensitive MATα lawn. The note with it: yeast deleted for STE6; halo size 1097>1079~1065>1019. As to the method:
A “halo” assay was performed by patching WKK6 cells containing the various Mdr1 constructs (1019, 1065, 1079 & 1097) onto a lawn of Matα cells which are supersensitive to a-factor (CY32=MATα leu2-3.112 trp1-289 ura3-52 his3*1 sst2*2 GAL+).

In the case of `CC(C)[C@@H]1NC(=O)[C@H](C)OC(=O)[C@@H](C(C)C)NC(=O)[C@@H](C(C)C)OC(=O)[C@H](C(C)C)NC(=O)[C@H](C)OC(=O)[C@@H](C(C)C)NC(=O)[C@@H](C(C)C)OC(=O)[C@H](C(C)C)NC(=O)[C@H](C)OC(=O)[C@@H](C(C)C)NC(=O)[C@@H](C(C)C)OC1=O` [valinomycin], in the series with WKK6 cells (WKK6 cells with plasmid 1079), the “resistance to valinomycin conferred by mutant Mdr1 (G185V)” value is “weak resistance”. The “resistance to valinomycin conferred by wild type Mdr1” value with WKK6 cells (WKK6 cells with plasmid 1097) is given as “complete resistance”.
FKGQVRFVVLA [SEQ ID NO:55]: the “ability of the peptide-encoding plasmid to confer the His phenotype on CY2012 (a-factor analogues)” value (“ability … (a-factor analogues)” below) with STE3 is listed as “confer the His^− phenotype”.
LMSPSFFFLPA [SEQ ID NO:57]: the “ability … (a-factor analogues)” value with STE3 is “confer the His^− phenotype”.
In the case of “Trp His Trp Leu Gln Leu Thr Pro Gly Gln Pro Met Tyr (WHWLQLTPGQPMY) [SEQ ID NO:47]”, in the series with STE2 receptor, the “agonist activity on the STE2 receptor, MFα-5.8 library” value (from here on “agonist activity on the STE2 receptor”) is reported as “acted as agonists”.
For the molecule “Tyr Ile Ile Lys Gly Val Phe Trp Asp Pro Ala (YIIKGVFWDPA; not fully specified (C-terminus); printed as Tyr Ile Ile Lys Gly Val Phe Trp Asp Pro Ala; also: C-terminal cysteine carboxymethylated) [a-factor, yeast dodecapeptide mating pheromone with C-terminal farnesylated, carboxymethylated cysteine, reference compound]”, the “aminotriazole-resistant growth on histidine-deficient media (autocrine response, a-factor binds to STE3)” value with STE3 (CY599 transformed with Cadus 1220, range of aminotriazole concentrations) is reported as “enhanced aminotriazole-resistant growth”. For the same molecule, in series [1], the “transport by wild-type human Mdr1 protein” value is “can be transported”.
Regarding WHWLELMPGQPLY [SEQ ID NO49], the “agonist activity on the STE2 receptor” value in the series with STE2 receptor was “acted as agonists”.
Turning to WHWMELRPGQPMY [SEQ ID NO:51], in the series with STE2 receptor, the “agonist activity on the STE2 receptor” value is “acted as agonists”.
As for YALFVHFFDIP [SEQ ID NO:53], in the series with STE3, the “ability … (a-factor analogues)” value is recorded as “confer the His^− phenotype”.
